The values that follow come from patent publication US20260285998 (published 2026).

Changes are numbered by the printed parent chain.

The labels stand for the following.
T1: human BCMA-Fc (human)
T1 chain: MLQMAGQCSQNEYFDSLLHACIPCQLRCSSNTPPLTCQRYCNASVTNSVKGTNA

T2: human BCMA (cell surface) (human)
T2 chain: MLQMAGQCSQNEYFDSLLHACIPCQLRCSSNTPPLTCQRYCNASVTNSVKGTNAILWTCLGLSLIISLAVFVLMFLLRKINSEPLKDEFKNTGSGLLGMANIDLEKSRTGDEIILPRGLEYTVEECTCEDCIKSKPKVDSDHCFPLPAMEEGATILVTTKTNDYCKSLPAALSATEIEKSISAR

B1: P1AG5057 (54_VH1a_Y292D/VL1a) (antibody, V domains shown)
VH: EVQLVESGGGLVKPGGSLRLSCAASGFTFSNAWMDWVRQAPGKGLEWVGQITAKSNNYATDYAAPVKGRFTISRDDSKNTLYLQMNSLKTEDTAVYYCTDDGYHWGQGTLVTVSS
VL: AIQMTQSPSSLSASVGDRVTITCRASEDIRNGLAWYQQKPGKAPKLLIYNANSLHTGVPSRFSGSGSGTDFTLTISSLQPEDFATYYCEDTSKYPYTFGQGTKLEIK
B2: P1AG5065 (54_VH1a_Y292D/VL1a_T699S) (antibody, V domains shown)
VH: B1 VH
VL: B1 VL with T56S
B3: P1AG5028 (54_VH2a/VL1a) (antibody, V domains shown)
VH: B1 VH with V5L, K13Q, G49S, D61Y, A64D, P65S, D76N, K89R, T90A
VL: B1 VL
B4: P1AG5071 (54_VH2a/VL1a_T699S) (antibody, V domains shown)
VH: B1 VH with V5L, K13Q, G49S, D61Y, A64D, P65S, D76N, K89R, T90A
VL: B1 VL with T56S
B5: P1AG5072 (54_VH1b/VL1a) (antibody, V domains shown)
VH: B1 VH with V48I, G49A, D61Y
VL: B1 VL
B6: P1AG5064 (54_VH1b/VL1a_N651A_N695S) (antibody, V domains shown)
VH: B1 VH with V48I, G49A, D61Y
VL: B1 VL with N50A, N52S
B7: P1AG5014 (54_VH1a_Y292D/VL1a_L1_pGL) (antibody, V domains shown)
VH: B1 VH
VL: B1 VL with G32D, A34G
B8: P1AG5013 (54_VH2a/VL1a_L1_pGL) (antibody, V domains shown)
VH: B1 VH with V5L, K13Q, G49S, D61Y, A64D, P65S, D76N, K89R, T90A
VL: B1 VL with G32D, A34G
B9: P1AG5067 (54_VH1a/VL1a_L1_pGL) (antibody, V domains shown)
VH: B1 VH with D61Y
VL: B1 VL with G32D, A34G
B10: P1AG5046 (54_VH1b/VL1a_T699S) (antibody, V domains shown)
VH: B1 VH with V48I, G49A, D61Y
VL: B1 VL with T56S
B11: P1AG5030 (54_VH1b/VL2a) (antibody, V domains shown)
VH: B1 VH with V48I, G49A, D61Y
VL: B1 VL with A1D
B12: P1AG5056 (54_VH1b/VL1a_N651A) (antibody, V domains shown)
VH: B1 VH with V48I, G49A, D61Y
VL: B1 VL with N50A
B13: P1AG5053 (E04_VH1a/VL1h) (antibody, V domains shown)
VH: QVQLVQSGAEVKKPGASVKVSCKASGYTFTNYWMHWVRQAPGQGLEWMGIIHPNSGSTNYNEKFQGRVTMTRDTSTSTVYMELSSLRSEDTAVYYCARGIYDYPFAYWGQGTLVTVSS
VL: DIQMTQSPSSLSASVGDRVTITCRASESVSIHGTHLMHWYQQKPGKAPKLLIYAASNLESGVPSRFSGSGSETDFTLTISSLQPEDFATYFCQQSIEDPYTFGGGTKVEIK
B14: P1AG5063 (E04_VH1a/VL1a) (antibody, V domains shown)
VH: B13 VH
VL: B13 VL with E72G, F91Y
B15: P1AG5026 (E04_VH1b/VL1a) (antibody, V domains shown)
VH: B13 VH with R72V, T74K
VL: B13 VL with E72G, F91Y
B16: P1AG5021 (E04_VH1b/VL1g) (antibody, V domains shown)
VH: B13 VH with R72V, T74K
VL: B13 VL with E72G
B17: P1AG5076 (E04_VH1b/VL1h) (antibody, V domains shown)
VH: B13 VH with R72V, T74K
VL: B13 VL
B18: P1AG5060 (E04_VH1b/VL1f) (antibody, V domains shown)
VH: B13 VH with R72V, T74K
VL: B13 VL with N57S, E59Q, F91Y
B19: P1AG5043 (E04_VH1a/VL1d) (antibody, V domains shown)
VH: B13 VH
VL: B13 VL with E59Q, F91Y
B20: P1AG5078 (E04_VH1b/VL1d) (antibody, V domains shown)
VH: B13 VH with R72V, T74K
VL: B13 VL with E59Q, F91Y
B21: P1AG5059 (E04_VH1a/VL1g) (antibody, V domains shown)
VH: B13 VH
VL: B13 VL with E72G
B22: P1AG5036 (E04_VH1a/VL1f) (antibody, V domains shown)
VH: B13 VH
VL: B13 VL with N57S, E59Q, F91Y
B23: P1AG5034 (E04_VH1b/VL1e) (antibody, V domains shown)
VH: B13 VH with R72V, T74K
VL: B13 VL with N57S, E59Q, E72G, F91Y
B24: P1AG7397 BCMA arm (antibody, V domains shown)
VH: B1 VH with V5L, K13Q, G49S, D61Y, A64D, P65S, D76N, K89R, T90A
VL: B1 VL with A1D
B25: P1AG7409 BCMA arm (antibody, V domains shown)
VH: B13 VH
VL: B13 VL with E72G, F91Y

The first assay concerns the target T1, human BCMA-Fc. Description: SPR, 25C.
In the case of B1, the Kd came out at 1.7 nM.

The molecule B2 had a Kd of 2.6 nM. Compared with the last molecule, the Kd is about 1.5-fold higher.

In the case of B3, the Kd is 2.7 nM.

Molecule B4 came in with a Kd of 3.4 nM.

B5: the Kd came to 1.3 nM.

Regarding B6, the Kd worked out at 3.5 nM.

Molecule B7 gave a Kd of 1.7 nM.

Turning to B8, binding was characterised by a dissociation constant (Kd) of 2.4 nM.

The molecule B9 gave a Kd of 3.4 nM.

With B10, binding was put at a Kd of 1.9 nM. This Kd lies about 1.8-fold lower than the previous one.

With B11, the Kd came out at 1.3 nM.

In the case of B12, binding was put at a Kd of 4.2 nM. Compared with the last molecule, the Kd is about 3.2-fold higher.

B13 showed a Kd of 2.4 nM.

B14 gave a Kd of 1.6 nM. This Kd and that of the molecule before are within 1.5-fold of each other.

Molecule B15 registered an equilibrium dissociation constant (Kd) of 2.7 nM.

As to B16, binding was characterised by a dissociation constant (Kd) of 2.8 nM.

Take B17: the Kd turned out to be 1.9 nM. This Kd and that of the molecule before are within 1.5-fold of each other.

Turning to B18, binding was characterised by a dissociation constant (Kd) of 3.2 nM.

For the molecule B19, the Kd turned out to be 2.6 nM.

For B20, the affinity, expressed as Kd, was 2.4 nM.

Turning to B21, the Kd was 2.3 nM.

B22 displayed a Kd of 2.9 nM.

B23 registered a Kd of 3.2 nM.

Another assay addresses T2, human BCMA (cell surface). Description: FACS.
B24 registered an EC50 of 23.7 nM. This counts as double-digit nanomolar.

Turning to B25, the response was half-maximal at 21.6 nM (EC50).

A further assay deals with cynomolgus BCMA-Fc (cynomolgus). Description: SPR, 25C.
cynomolgus BCMA-Fc (cynomolgus), sequence (chain, as listed by the source): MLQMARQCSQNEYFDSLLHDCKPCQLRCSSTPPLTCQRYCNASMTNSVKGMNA
The molecule B1 gave a Kd of 4 nM.

Molecule B2 yielded a Kd of 6.4 nM.

The molecule B3 had a Kd of 3.8 nM.

Take B4: binding was characterised by a dissociation constant (Kd) of 6.5 nM.

Take B5: the Kd came out at 3.2 nM.

As to B6, the affinity, expressed as Kd, was 13 nM.

As for B7, binding was put at a Kd of 0.11 nM.

In the case of B8, the Kd came to 1.9 nM.

B9 had a Kd of 1.7 nM.

Consider B10, for which binding was characterised by a dissociation constant (Kd) of 3.9 nM.

In turn, B11 gave a Kd of 2.2 nM. This Kd is about 1.8-fold lower than that of the molecule before.

B12 yielded a Kd of 13 nM.

Turning to B13, the Kd is 13 nM. In other words, the double-digit nanomolar range.

For the molecule B14, binding was characterised by a dissociation constant (Kd) of 28 nM.

B15 had a Kd of 33 nM.

Regarding B16, binding was characterised by a dissociation constant (Kd) of 35 nM. This Kd and that of the molecule before are within 1.5-fold of each other.

The molecule B17 displayed a Kd of 23 nM.

The molecule B18 returned a dissociation constant (Kd) of 14 nM.

On to B19, for which the Kd amounted to 14 nM.

B20 yielded a Kd of 22 nM.

B21 yielded a Kd of 30 nM.

The molecule B22 showed a Kd of 9.5 nM.

B23 showed a Kd of 32 nM.

Broadly, the Kd is the free concentration of one partner at which half of the binding sites on the other are occupied at equilibrium, for simple one-to-one binding. High values mean weaker binding, low ones tighter binding. One may read the EC50 as the midpoint of the concentration-response curve. Higher therefore signals weaker potency.
